From article PMC5727457 (Nucleic Acids Research, 2017)

B1: His6-Shu2 (natural protein)
chain: MSKDVIEYSKLFAKLVNTNDDTKLDDTIASFLYYMFPRELFIRAISLLESSDMFIYILDRVHNKEGNEHTSLIDVLVDEFYKGSSNSLLEYRLIVKDTNDGAPPILVDIAHWFCSCEEFCKYFHEALEKTDEKEELHDVLINEVDDHLQFSDDRFAQLDPHSLSKQWYFKFDKVCCSHLLAFSILLRSSINVLKFFTVNSNKVFVIAIDNIDEWLNLHINIVE

Assays:
Psy3 = molecular target: T1, Psy3 (S. cerevisiae, UniProt Q12318 1-242); assay: crystal structure
T1 sequence: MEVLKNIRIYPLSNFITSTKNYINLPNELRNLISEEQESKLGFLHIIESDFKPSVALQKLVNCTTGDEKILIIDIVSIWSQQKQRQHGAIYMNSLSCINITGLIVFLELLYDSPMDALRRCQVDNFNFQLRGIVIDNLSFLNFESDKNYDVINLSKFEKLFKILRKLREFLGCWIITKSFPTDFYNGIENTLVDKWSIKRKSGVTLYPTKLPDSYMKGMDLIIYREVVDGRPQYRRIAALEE

His6-Shu2 = molecular target: B1; assay: pull-down
[1] = molecular target: T2, His6-tagged Psy3-Csm2 heterodimer (S. cerevisiae, UniProt Q12318;P40465); assay: pull-down
T2 sequence 1: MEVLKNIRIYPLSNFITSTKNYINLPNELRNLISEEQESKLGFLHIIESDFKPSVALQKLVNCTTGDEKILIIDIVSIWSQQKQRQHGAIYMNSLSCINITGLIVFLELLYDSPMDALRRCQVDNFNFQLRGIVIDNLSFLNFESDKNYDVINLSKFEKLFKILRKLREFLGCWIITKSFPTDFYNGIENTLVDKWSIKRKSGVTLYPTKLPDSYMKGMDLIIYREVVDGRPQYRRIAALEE
T2 sequence 2: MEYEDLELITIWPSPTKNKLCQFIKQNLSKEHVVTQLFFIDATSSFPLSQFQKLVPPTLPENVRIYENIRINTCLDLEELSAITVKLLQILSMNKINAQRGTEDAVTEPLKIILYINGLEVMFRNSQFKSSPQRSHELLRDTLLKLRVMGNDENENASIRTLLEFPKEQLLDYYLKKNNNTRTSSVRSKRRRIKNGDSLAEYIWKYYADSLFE

[2] = molecular target: T3, His6-tagged Psy3Δ(1–7)-Csm2 heterodimer (S. cerevisiae, UniProt Q12318;P40465); assay: pull-down
T3 sequence 1: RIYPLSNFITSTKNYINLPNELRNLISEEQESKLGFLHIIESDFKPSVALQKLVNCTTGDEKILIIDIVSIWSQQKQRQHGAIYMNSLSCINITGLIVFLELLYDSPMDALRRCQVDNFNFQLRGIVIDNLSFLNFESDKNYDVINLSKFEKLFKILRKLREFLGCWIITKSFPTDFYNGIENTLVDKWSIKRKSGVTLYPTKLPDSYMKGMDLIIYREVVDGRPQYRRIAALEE
T3 sequence 2: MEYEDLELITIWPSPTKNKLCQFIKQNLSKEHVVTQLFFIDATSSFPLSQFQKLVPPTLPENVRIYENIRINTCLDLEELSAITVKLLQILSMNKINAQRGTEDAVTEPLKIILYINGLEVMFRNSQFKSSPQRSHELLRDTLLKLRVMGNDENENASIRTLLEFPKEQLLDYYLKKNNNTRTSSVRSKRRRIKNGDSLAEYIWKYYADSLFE

Binder	binding result (Psy3)	binding result [1]	also measured
B1	binds		
Csm2 (natural protein) MEYEDLELITIWPSPTKNKLCQFIKQNLSKEHVVTQLFFIDATSSFPLSQFQKLVPPTLPENVRIYENIRINTCLDLEELSAITVKLLQILSMNKINAQRGTEDAVTEPLKIILYINGLEVMFRNSQFKSSPQRSHELLRDTLLKLRVMGNDENENASIRTLLEFPKEQLLDYYLKKNNNTRTSSVRSKRRRIKNGDSLAEYIWKYYADSLFE	binds		
Shu1 (natural protein) MQFEERLQQLVESDWSLDQSSPNVLVIVLGDTARKYVELGGLKEHVTTNTVAGHVASRERVSVVFLGRVKYLYMYLTRMQAQANGPQYSNVLVYGLWDLTATQDGPQQLRLLSLVLRQCLSLPSKVEFYPEPPSSSVPARLLRFWDHIIR	binds		binding result (His6-Shu2): binds
Shu2-Shu1 heterodimer (His6 tag removed) (complex) chain 1: MSKDVIEYSKLFAKLVNTNDDTKLDDTIASFLYYMFPRELFIRAISLLESSDMFIYILDRVHNKEGNEHTSLIDVLVDEFYKGSSNSLLEYRLIVKDTNDGAPPILVDIAHWFCSCEEFCKYFHEALEKTDEKEELHDVLINEVDDHLQFSDDRFAQLDPHSLSKQWYFKFDKVCCSHLLAFSILLRSSINVLKFFTVNSNKVFVIAIDNIDEWLNLHINIVE chain 2: MQFEERLQQLVESDWSLDQSSPNVLVIVLGDTARKYVELGGLKEHVTTNTVAGHVASRERVSVVFLGRVKYLYMYLTRMQAQANGPQYSNVLVYGLWDLTATQDGPQQLRLLSLVLRQCLSLPSKVEFYPEPPSSSVPARLLRFWDHIIR		binds	binding result [2]: binds
Shu2-Shu1(V51A) heterodimer (His6 tag removed) (complex) chain 1: MSKDVIEYSKLFAKLVNTNDDTKLDDTIASFLYYMFPRELFIRAISLLESSDMFIYILDRVHNKEGNEHTSLIDVLVDEFYKGSSNSLLEYRLIVKDTNDGAPPILVDIAHWFCSCEEFCKYFHEALEKTDEKEELHDVLINEVDDHLQFSDDRFAQLDPHSLSKQWYFKFDKVCCSHLLAFSILLRSSINVLKFFTVNSNKVFVIAIDNIDEWLNLHINIVE chain 2: MQFEERLQQLVESDWSLDQSSPNVLVIVLGDTARKYVELGGLKEHVTTNTAAGHVASRERVSVVFLGRVKYLYMYLTRMQAQANGPQYSNVLVYGLWDLTATQDGPQQLRLLSLVLRQCLSLPSKVEFYPEPPSSSVPARLLRFWDHIIR		binds	
Shu2-Shu1(V51L) heterodimer (His6 tag removed) (complex) chain 1: MSKDVIEYSKLFAKLVNTNDDTKLDDTIASFLYYMFPRELFIRAISLLESSDMFIYILDRVHNKEGNEHTSLIDVLVDEFYKGSSNSLLEYRLIVKDTNDGAPPILVDIAHWFCSCEEFCKYFHEALEKTDEKEELHDVLINEVDDHLQFSDDRFAQLDPHSLSKQWYFKFDKVCCSHLLAFSILLRSSINVLKFFTVNSNKVFVIAIDNIDEWLNLHINIVE chain 2: MQFEERLQQLVESDWSLDQSSPNVLVIVLGDTARKYVELGGLKEHVTTNTLAGHVASRERVSVVFLGRVKYLYMYLTRMQAQANGPQYSNVLVYGLWDLTATQDGPQQLRLLSLVLRQCLSLPSKVEFYPEPPSSSVPARLLRFWDHIIR		binds	
